Laboratory results from patent publication US12648996B2, “RNA aptamers and uses thereof” (UNIVERSITY OF MIAMI, priority 2019, dated 2026).

T1: annexin A4 (ANXA4) (Mus musculus, UniProt P97429)
T1 construct: purchased myBiosource
T1 sequence (P97429 1-319): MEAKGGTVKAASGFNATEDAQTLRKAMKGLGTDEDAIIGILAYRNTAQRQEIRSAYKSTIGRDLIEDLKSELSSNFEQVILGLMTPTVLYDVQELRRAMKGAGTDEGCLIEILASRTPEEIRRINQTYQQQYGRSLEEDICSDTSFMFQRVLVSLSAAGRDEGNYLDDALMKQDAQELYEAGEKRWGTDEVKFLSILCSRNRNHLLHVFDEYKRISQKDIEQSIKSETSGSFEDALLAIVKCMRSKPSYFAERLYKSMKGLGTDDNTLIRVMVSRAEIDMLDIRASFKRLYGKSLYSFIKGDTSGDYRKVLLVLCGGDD

B1: aptamer 11: 2'Fluoro-RNA aptamer, SEQ ID NO: 11, specific for tumor infiltrating myeloid cells; ligand vimentin (nucleic acid)
chain: GGAGGACGAUGCGGGGAAGCAACACUUAGUCGCGAUUGAUACGUGCGCAGUCAUCAGACGACUCGCUGAGGAUCCGAGA
modifications: 2'-fluoro modified RNA, modified positions not given here, Cy3-labelled for binding assays
notes: ligand vimentin
B2: aptamer 6: 2'Fluoro-RNA aptamer, SEQ ID NO: 6, specific for tumor infiltrating myeloid cells (nucleic acid)
chain: GGAGGACGAUGCGGCAGGUGCGGGAUCUAAUGCGUAGACAGCCAUAUACUGACACAGACGACUCGCUGAGGAUCCGAGA
modifications: 2'-fluoro modified RNA, modified positions not given here, Cy3-labelled for binding assays
B3: aptamer 3: 2'Fluoro-RNA aptamer, SEQ ID NO: 3, specific for tumor infiltrating myeloid cells; ligand ANXA4 (nucleic acid)
chain: GGAGGACGAUGCGGAUUACCAACUUGAACGCCGAGAGUGUGGUCACGUGUUCUGCAGACGACUCGCUGAGGAUCCGAGA
modifications: 2'-fluoro modified RNA, modified positions not given here, Cy3-labelled for binding assays
notes: ligand ANXA4
B4: aptamer 14: 2'Fluoro-RNA aptamer, SEQ ID NO: 14, specific for tumor infiltrating myeloid cells (nucleic acid)
chain: GGAGGACGAUGCGGUGUACACUGAUUGCCUUUGUGUUAUGAGCGACAGAUCUGCCAGACGACUCGCUGAGGAUCCGAGA
modifications: 2'-fluoro modified RNA, modified positions not given here, Cy3-labelled for binding assays

How the values were obtained:
4T1 mammary carcinoma = test: Therapeutic efficacy and toxicity in 4T1 bearing BALB/c mice; assay type: in vivo, mouse
Description: FIGS. 7A-7C. TIMC-specific aptamers increase doxorubicin therapeutic index. […] Treatment was repeated 2 and 6 days later. […] Weight loss as measure of toxicity is reported. […] Survival was monitored.
Aptamer-Doxorubicin treatment: Aptamer-doxorubicin was prepared by making DNA template with the appropriate aptamer followed by a GC-rich primer sequence downstream (GC rich Sul3′, FIG. 11. From this template, RNA was transcribed and purified as described above. Doxorubicin (Sigma) was mixed with the RNA sequence as needed. Doxil (ALZA corporation) was purchased through the University of Miami pharmacy.
BALB/c mice were injected IV with the 4T1 luciferase thy1.1 tumor cell line. Treatment was started when tumors reached 5 mm of diameter and repeated 2 and 6 days later. Tumor growth and mice weight was reported. Mice were evaluated at least 3 times a week and humanely euthanized when tumor size index reached 150 mm^2 or if they lose >20% of initial weight due to chemotherapy or tumor growth in compliance with the IACUC policy and animal protocol. Data are expressed as tumor size index defined as the product of the main diameter with the perpendicular one.
Next, the therapeutic efficacies of doxorubicin delivered by TIMC-specific aptamers was compared by PEGylated liposomes (Doxil, the first clinically available nanoparticle that became the gold standard for doxorubicin treatment (34, 35)), and as unconjugated molecules. Briefly, 4T1 bearing BALB/c mice were treated with unconjugated DOX at dose high, or low dose, or with low doses of DOX conjugated to the TIMC-specific aptamer, or with Doxil (low dose—0.35 mg/kg). Treatment was repeated 2 and 6 days later. As additional controls, mice were treated with unconjugated aptamers, irrelevant aptamers conjugated with doxorubicin, or left untreated.

[1] = test system: TIMC from 4T1, CT26, RENCA, B16LU8, MCA203, E0771 tumors; test: Staining of single cell suspensions from tumor, bone marrow, spleen and lungs in multiple mouse tumor models; assay type: cell-based; conditions: BALB/c (4T1, CT26, RENCA) and C57Bl/6 (B16LU8, MCA203, E0771) tumor models
Description: (§1) Flow cytometry: Aptamers were labeled with Cy3 using the Silencer siRNA Labeling Kit—Cy3 (Ambion) and 37 pmoles were used to label 5×10^6 cells unless otherwise specified. In some experiments biotinylated aptamers were labelled with streptavidin conjugated with Alexa Fluor 647 or Alexa Fluor 750 and purified from unbound aptamer by Ultra-4 centrifugal filters, […] (Millipore).
(§2) Dead cells were excluded by the analysis by using 4′,6′-diamidino-2-phenylindole (DAPI; Sigma) or Live/Dead dye (Invitrogen). Samples were read on a LSR2 equipped with 405 nm, 488 nm, 532 nm, and 635 nm lasers (BD Bioscience). Data were analyzed using FCS6 express software (Denovo-Software).
The binding properties of monoclonal RNA aptamers 3, 6, 11 and 14 were evaluated in other tumor models. Aptamers 3, 6, 11, or 14 single cell suspensions were stained from tumor, bone marrow, spleen, and lungs of BALB/c mice bearing the 4T1 mammary carcinoma, the CT26 colon carcinoma, or the RENCA renal carcinoma. Similar analysis was performed on single cell suspensions from C57Bl/6 mice bearing B16LU8 melanoma, MCA203 fibrosarcoma or E0771 mammary carcinoma.

[2] = test system: tumor infiltrating myeloid cells (4T1 tumor); test: Flow cytometry of Cy3-labelled monoclonal aptamers on single cell suspensions from tumor and spleen of 4T1 bearing mice; assay type: cell-based, mouse; conditions: tumor and spleen of 4T1 challenged mice; splenic MDSCs and CD11b- cells p>0.05
Description: FIGS. 2A-C. […] FIG. 2A) Single cell suspensions from spleens and tumors of mice pooled from 3 mice bearing the 4T1 tumor (0.5 cm in diameter) were labelled with antibodies against CD11b, Ly6C, Ly6G and the 15 Cy3-labelled monoclonal aptamers identified by APTANI. Data derived from n=5 biological replica and derived from n=2 independent experiments. Aptamers 3 (SEQ ID NO: 3), 6 (SEQ ID NO: 6), 11 (SEQ ID NO: 11), and 14 (SEQ ID NO: 14) were chosen for further analysis and are in bold. *=P<0.001 by one-way ANOVA and post-hoc Holm-Sidak comparisons versus irrelevant aptamer. […] FIG. 2B) Secondary structure of aptamers 3 (SEQ ID NO: 3), 6 (SEQ ID NO: 6), 11 (SEQ ID NO: 11), and 14 (SEQ ID NO: 14). Binding motifs identified by APTANI are underlined in black. Fluorinated nucleotides are highlighted in gray. FIG. 2C) An equimolar mixture of the aptamers increases the specificity for tumor infiltrating myeloid cells. Pooled single cell suspension of tumor or spleen from 4T1 bearing mice were labeled with aptamers 3 (SEQ ID NO: 3), 6 (SEQ ID NO: 6), 11 (SEQ ID NO: 11), and 14 (SEQ ID NO: 14), or equimolar mixtures of each aptamer and analyzed by FACS. Data derived from n=3 independent experiments.
as §1, §2
These 15 aptamers were tested by flow cytometry against single cell suspensions from tumor and spleen of mice challenged with the 4T1 tumor (FIG. 2A).
Next, whether an equimolar mixture of aptamers 3, 6, 11 and 14 was more efficient in recognizing TIMC as compared to each individual aptamer was evaluated.

[3] = Aptamer-based immunoprecipitation and mass spectrometry (target identification); conditions: immunoprecipitation, mass spectrometry
Description: (§3) FIG. 4A-4E. Characteristics of aptamers that preferentially recognize tumor infiltrating myeloid cells. FIG. 4A) Affinity of the aptamers for IL4 treated MSC2 cells was determined by FACS. Putative targets (ANXA4 and VIM) were identified via aptamer-based immunoprecipitation, SDS page, and mass spec analysis. Kds against ligands was determined by FACS against recombinant protein conjugated to epoxy beads. FIG. 4B) Epoxy beads conjugated with ANXA4 or irrelevant protein were stained with Cy3-labelled aptamer 3 or irrelevant aptamer and analyzed by FACS. FIG. 4C) Epoxy beads conjugated with vimentin or irrelevant protein were stained with Cy3-labelled aptamer 11 or irrelevant aptamer and analyzed by FACS. FIG. 4D) ANXA4 competitive assay. 5×10^5 IL4 treated MSC2 were stained with aptamer 3 in the presence or in the absence of recombinant ANXA4. FIG. 4E) MCS2 cells were transfected via the 4PD nanoparticle with shRNA against vimentin or with a scrambled shRNA. 4 days later cells were stained with Cy3-labelled aptamer 11 and DAPI. Pa=One-way ANOVA p value. Data derived from n=2 independent experiments.
The specificity of aptamer 3 for ANXA4 and aptamer 11 for vimentin were tested by competitive experiments (FIG. 4D) and with validated shRNA (29) (FIG. 4E), respectively.

vimentin (VIM) = molecular target: T2, vimentin (VIM) (Mus musculus, UniProt P20152); test: FACS of epoxy beads conjugated with recombinant vimentin; assay type: binding; conditions: beads loaded with relevant or irrelevant recombinant proteins
T2 construct: purchased myBiosource
Description: as §3
(§4) FIG. 8A and FIG. 8B. Affinity of aptamers #3 (SEQ ID NO: 3), #6 (SEQ ID NO: 6), #11 (SEQ ID NO: 11) and #14 (SEQ ID NO: 14) for IL4 treated MSC2 or their putative ligand. […] Binding was evaluated by FACS. […] Binding was evaluated by FACS. […]

[4] = test system: 4T1 tumors and tissues arrays from naïve mice; test: Immunofluorescence microscopy on 4T1 tumors and tissues arrays from naïve mice; design: species or system mouse
Description: Immunofluorescence microscopy and Image cytometry: Fresh frozen tissue and tissues microarrays (AMSBIO) were fixed in 10% neutral-buffered formalin (BDH) for 15′ at RT, incubated with dextran sulfate sodium/PBS (1:2 m/V—Pharmacia biotech) for 30′ and washed with PBS. Tissues were then stained with Cy3-labelled aptamer (10 ug/ml) in PBS for 30′, masked with 2% BSA, and counterstained with antibodies and/or DAPI.
Specificity was further evaluated by immunofluorescence microscopy using 4T1 tumors and tissues arrays from naïve mice.

annexin A4 (ANXA4) = molecular target: T1, annexin A4 (ANXA4); test: FACS of epoxy beads conjugated with recombinant ANXA4; assay type: binding; conditions: beads loaded with relevant or irrelevant recombinant proteins
Description: as §3, §4

T2 sequence (P20152 whole entry): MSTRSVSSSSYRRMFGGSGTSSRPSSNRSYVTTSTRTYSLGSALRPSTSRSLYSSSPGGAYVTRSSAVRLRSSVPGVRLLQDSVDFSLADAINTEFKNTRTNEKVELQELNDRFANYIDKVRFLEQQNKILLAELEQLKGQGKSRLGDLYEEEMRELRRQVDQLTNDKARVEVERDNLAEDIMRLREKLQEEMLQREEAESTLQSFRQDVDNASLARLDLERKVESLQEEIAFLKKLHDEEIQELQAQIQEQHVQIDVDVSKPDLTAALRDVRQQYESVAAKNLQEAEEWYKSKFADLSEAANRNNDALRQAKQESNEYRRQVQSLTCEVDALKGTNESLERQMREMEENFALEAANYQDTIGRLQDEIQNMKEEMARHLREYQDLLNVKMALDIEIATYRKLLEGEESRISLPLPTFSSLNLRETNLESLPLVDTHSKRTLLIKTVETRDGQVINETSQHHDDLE

| Molecule | toxicity (body weight loss) (4T1 mammary carcinoma; free DOX high dose 3.5 mg/kg, DOX-aptamer 0.35 mg/kg) | treatment related mortality (4T1 mammary carcinoma; high doses of free doxorubicin) [%] | anti-tumor effect (4T1 mammary carcinoma; i.v., repeated 2 and 6 days later, free DOX high dose 3.5 mg/kg, Doxil and DOX-aptamer low dose 0.35 mg/kg) | recognition of TIMC [1] | specificity for tumor infiltrating vs splenic myeloid cells [2] | putative target [3] | specificity for vimentin protein (vimentin (VIM)) | staining of tissues from naïve mice [4] | specificity for annexin protein (annexin A4 (ANXA4)) |
| --- | --- | --- | --- | --- | --- | --- | --- | --- | --- |
| COc1cccc2c1C(=O)c1c(O)c3c(c(O)c1C2=O)C[C@@](O)(C(=O)CO)C[C@@H]3O[C@H]1C[C@H](N)[C@H](O)[C@H](C)O1 [free doxorubicin, doxorubicin] | significant body weight loss | 15 | No significant anti-tumor effect |  |  |  |  |  |  |
| B1 |  |  |  | able to recognize TIMC | specific for tumor infiltrating myeloid cells | vimentin (VIM P20152) | confirmed the specificity |  |  |
| B2 |  |  |  | able to recognize TIMC | specific for tumor infiltrating myeloid cells | No targets have been identified |  | showed binding for epithelial cells in the uterus and low binding for pancreatic acinar tissue |  |
| B3 |  |  |  | able to recognize TIMC | specific for tumor infiltrating myeloid cells | annexin A4 (ANXA4 isoform X1 P97495) |  | recognized hepatocytes at low intensity | confirmed the specificity |
| B4 |  |  |  | able to recognize TIMC | specific for tumor infiltrating myeloid cells | No targets have been identified |  | recognized intestinal villi and seems to show a nuclear staining of cerebellum, pancreatic acinar tissue, stomach and spleen |  |
